Assay [1] addresses recombinant human FcRn (Sino Biological) (human, UniProt P55899 24-297; P61769 21-119). Kind of assay: ELISA at pH 6.0: plate coated with recombinant human FcRn, antibody titrated, HRP goat anti-human Fc, OD650. Background: ELISA stands for enzyme-linked immunosorbent assay.
Procedure: FcRn binding was evaluated using an enzyme linked immunoassay (ELISA). Briefly, 96-well ELISA plates were coated with of recombinant human FcRn (Sino Biological, Inc, Beijing, China) in 1×PBS (pH 6.0) coating buffer. Subsequently, the plates were washed and blocked with ELISA blocking buffer. […] After washing to remove unbound antibodies, the bound antibodies were detected with horseradish peroxidase (HRP) conjugated goat anti-human Fc-specific polyclonal antibody (Jackson ImmunoResearch, West Grove, Pa.). After washing to remove unbound detection antibody, a slow kinetic substrate solution of tetramethylbenzidine (TMB) was added to the wells where color develops in proportion to the amount of testing samples. The optical density (OD) of the color was measured at 650 nm and was used for determination of the amount of testing samples bound to FcRn. Detectable binding of antibodies over the range of test concentrations was analyzed using the one-site binding, nonlinear regression analysis with GraphPad Prism.
Assay [2] has as its target human C1q (sigma Cat #C1740) (human, UniProt P02745 23-245; P02746 28-253; P02747 29-245). Kind of assay: ELISA: plate coated with antibody at 1 ug/ml, human C1q titrated 0.625-40 ug/ml, rabbit anti-human C1q then HRP goat anti-rabbit, OD650.
Procedure: Subsequently the plates were washed and blocked with ELISA blocking buffer (PBS containing 1% BSA). […] A slow kinetic substrate solution of tetramethylbenzidine (TMB) was added and the optical density (OD) of the color was measured at 650 nm. The data representing detectable binding of antibodies over the range of test concentrations was analyzed by one-site binding nonlinear regression analysis using GraphPad Prism software.
The target of assay [3] is T1, recombinant human soluble ECD of CD64/FCGRIA (human, UniProt P12314 16-292).
T1 construct: extracellular domain; also called FcγRI
Kind of assay: ELISA: plate coated with recombinant human CD64/FCGRIA ECD, antibody titrated, HRP goat anti-human Fc, OD650.
Procedure: FcγRI binding was evaluated using an enzyme linked immunoassay (ELISA). Briefly, 96-well ELISA plates were coated with recombinant human soluble ECD of CD64/FCGRIA (Sino Biological, Inc. Beijing, China) in 1×PBS (pH7.4) coating buffer. Subsequently the plates were washed and blocked with ELISA blocking buffer. […] After washing to remove unbound antibodies, the bound antibodies were detected with horseradish peroxidase (HRP) conjugated goat anti-human Fc-specific polyclonal antibody (Jackson ImmunoResearch, West Grove, Pa.). After washing to remove the unbound detection antibody, a slow kinetic substrate solution of tetramethylbenzidine (TMB) was added to the wells where color develops in proportion to the amount of testing samples. The optical density (OD) of the color was measured at 650 nm and was used for determination of the amount of testing samples bound to FcγRI. Detectable binding of antibodies over the range of test concentrations was analyzed using the one-site binding, nonlinear regression analysis with GraphPad Prism.

Assay [4] has as its target T2, recombinant human soluble ECD of hCD16a/FCGRIIIA (human, UniProt P08637 17-208).
T2 construct: extracellular domain; also called FcγRIIIa
Kind of assay: ELISA: plate coated with recombinant human CD16a/FCGRIIIA ECD, antibody titrated 0.005-80 ug/ml, HRP goat anti-human Fc, OD650.
Procedure: FcγRIIIa binding was evaluated using an enzyme linked immunoassay (ELISA). Briefly, 96-well ELISA plates were coated with of recombinant human soluble ECD of hCD16a/[sequence] (Sino Biological, Inc, Beijing, China) in 1×PBS (pH7.4) coating buffer. Subsequently the plates were washed and blocked with ELISA blocking buffer. […] After washing to remove unbound antibodies, the bound antibodies were detected with horseradish peroxidase (HRP) conjugated goat anti-human Fc-specific polyclonal antibody (Jackson ImmunoResearch, West Grove, Pa.). After washing to remove unbound detection antibody, a slow kinetic substrate solution of tetramethylbenzidine (TMB) was added to the wells where color develops in proportion to the amount of testing samples. The optical density (OD) of the color was measured at 650 nm and was used for determination of the amount of testing samples bound to FcγRIIa. Detectable binding of antibodies over the range of test concentrations was analyzed using the one-site binding, nonlinear regression analysis with GraphPad Prism.

human C1q (sigma Cat #C1740), sequence (P02745 23-245 limits assumed, chain 1 of 3): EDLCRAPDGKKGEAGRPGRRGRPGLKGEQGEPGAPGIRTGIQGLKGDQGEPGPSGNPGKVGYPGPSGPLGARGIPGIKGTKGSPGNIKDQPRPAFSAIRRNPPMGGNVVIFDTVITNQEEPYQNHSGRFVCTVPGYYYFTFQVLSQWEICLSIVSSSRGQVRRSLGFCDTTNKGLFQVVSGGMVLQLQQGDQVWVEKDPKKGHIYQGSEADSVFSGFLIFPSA
human C1q (sigma Cat #C1740), sequence (P02746 28-253 limits assumed, chain 2 of 3): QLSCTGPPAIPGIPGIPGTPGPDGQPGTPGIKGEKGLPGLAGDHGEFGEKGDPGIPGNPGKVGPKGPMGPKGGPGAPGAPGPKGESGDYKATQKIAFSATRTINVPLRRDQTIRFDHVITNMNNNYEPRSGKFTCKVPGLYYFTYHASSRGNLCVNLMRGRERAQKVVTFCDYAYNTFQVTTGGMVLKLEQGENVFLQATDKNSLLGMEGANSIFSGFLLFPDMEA
human C1q (sigma Cat #C1740), sequence (P02747 29-245 limits assumed, chain 3 of 3): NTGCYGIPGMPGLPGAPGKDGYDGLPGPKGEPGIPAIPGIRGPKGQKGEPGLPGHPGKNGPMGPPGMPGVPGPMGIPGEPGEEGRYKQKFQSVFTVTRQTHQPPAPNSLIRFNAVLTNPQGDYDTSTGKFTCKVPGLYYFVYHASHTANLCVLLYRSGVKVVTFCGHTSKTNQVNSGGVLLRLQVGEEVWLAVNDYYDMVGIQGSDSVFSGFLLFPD
T1 sequence (P12314 16-292): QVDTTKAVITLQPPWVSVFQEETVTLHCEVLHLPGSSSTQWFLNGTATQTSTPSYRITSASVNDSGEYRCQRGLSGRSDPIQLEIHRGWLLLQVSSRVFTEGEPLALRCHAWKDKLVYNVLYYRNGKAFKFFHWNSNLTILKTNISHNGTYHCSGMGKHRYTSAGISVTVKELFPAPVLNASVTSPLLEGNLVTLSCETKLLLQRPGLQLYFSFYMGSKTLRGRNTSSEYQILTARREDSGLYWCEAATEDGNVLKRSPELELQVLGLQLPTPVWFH
T2 sequence (P08637 17-208): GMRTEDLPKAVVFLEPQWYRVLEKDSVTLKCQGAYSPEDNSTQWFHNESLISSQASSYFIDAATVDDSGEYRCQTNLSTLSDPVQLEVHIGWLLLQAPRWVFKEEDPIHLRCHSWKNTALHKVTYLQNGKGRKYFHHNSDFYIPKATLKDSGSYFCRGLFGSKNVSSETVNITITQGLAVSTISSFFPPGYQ
recombinant human FcRn (Sino Biological), sequence (P55899 24-297 limits assumed, chain 1 of 2): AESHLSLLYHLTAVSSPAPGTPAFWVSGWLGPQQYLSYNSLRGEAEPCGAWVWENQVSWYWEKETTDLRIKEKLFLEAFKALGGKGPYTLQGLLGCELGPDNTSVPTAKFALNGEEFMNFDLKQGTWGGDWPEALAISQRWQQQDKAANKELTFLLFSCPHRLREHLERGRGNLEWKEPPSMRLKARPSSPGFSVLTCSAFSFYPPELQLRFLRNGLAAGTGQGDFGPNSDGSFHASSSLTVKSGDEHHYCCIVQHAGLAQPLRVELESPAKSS
recombinant human FcRn (Sino Biological), sequence (P61769 21-119 limits assumed, chain 2 of 2): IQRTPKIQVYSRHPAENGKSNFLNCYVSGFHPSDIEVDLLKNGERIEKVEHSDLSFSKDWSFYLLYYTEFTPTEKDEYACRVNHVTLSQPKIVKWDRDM

B1: Anti-EGFR Ab No. 1 L234A, L235A, L328C (antibody, human IgG1, kappa, L234A L235A)
heavy: QVQLQESGPGLVKPSETLSLTCTVSGGSVSSGDYYWTWIRQSPGKGLEWIGHIYYSGNTNYNPSLKSRLTISIDTSKTQFSLKLSSVTAADTAIYYCVRDRVTGAFDIWGQGTMVTVSSASTKGPSVFPLAPSSKSTSGGTAALGCLVKDYFPEPVTVSWNSGALTSGVHTFPAVLQSSGLYSLSSVVTVPSSSLGTQTYICNVNHKPSNTKVDKKVEPKSCDKTHTCPPCPAPEAAGGPSVFLFPPKPKDTLMISRTPEVTCVVVDVSHEDPEVKFNWYVDGVEVHNAKTKPREEQYNSTYRVVSVLTVLHQDWLNGKEYKCKVSNKACPAPIEKTISKAKGQPREPQVYTLPPSREEMTKNQVSLTCLVKGFYPSDIAVEWESNGQPENNYKTTPPVLDSDGSFFLYSKLTVDKSRWQQGNVFSCSVMHEALHNHYTQKSLSLSPGK
light: not shown
notes: Fc variant; wild-type light chain; also called Anti-EGFR Mab No. 1 triple mutant; triple mutation L234A, L235A, and L328C
B1: the binding result in assay [1] was “binds”; in assay [2], “binds”; in assay [3] it was “no binding (tested: 30 ug/ml)”; in assay [4], “no binding (tested: 80 ug/ml)”.

The record behind these values is US20230165967A1 (TAE LIFE SCIENCES, published 2023).
